Test results published in patent US20070248613A1.
Like-named read-outs stand apart in the source and are kept apart here.

Assays:
[1] = target: D5 IgG
[2] = target: D5 IgG; remark: listed apart in the source
[3] = target: IZN17-Q567R (HIV) (UniProt P04578); test: SPR (Biacore)
[4] = target: IZN17 (HIV) (UniProt P04578); test: SPR (Biacore)
[5] = target: IZN17-L565M (HIV) (UniProt P04578); test: SPR (Biacore)
[6] = target: IZN17-G572D (HIV) (UniProt P04578); test: SPR (Biacore)
[7] = target: IQN17-2Pro; test: SPR (Biacore)
[8] = target: gp120 of the HIV-1 HXB2 envelope (HIV-1 strain HXB2) (UniProt P04578); test: cell-based or functional assay

D5 IgG, sequence (VH, as listed by the source, chain 1 of 2): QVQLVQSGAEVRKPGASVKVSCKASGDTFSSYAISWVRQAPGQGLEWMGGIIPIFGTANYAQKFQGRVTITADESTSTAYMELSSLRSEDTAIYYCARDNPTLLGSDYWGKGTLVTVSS
D5 IgG, sequence (VL, as listed by the source, chain 2 of 2): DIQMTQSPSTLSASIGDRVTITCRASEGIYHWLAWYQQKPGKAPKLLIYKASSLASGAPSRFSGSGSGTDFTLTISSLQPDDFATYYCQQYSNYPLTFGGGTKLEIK
D5 IgG (antibody), sequence (VH): as the sequence (VH, as listed by the source, chain 1 of 2) above
D5 IgG (antibody), sequence (VL): as the sequence (VL, as listed by the source, chain 2 of 2) above

With “IZN17-L565M (from UniProt P04578 565-581) (peptide)” as the substance, how does the IC50 (read off the curve) [1] read?
The IC50 (read off the curve) was 10 nM.

With “IZN17 (from UniProt P04578 565-581) (peptide)” as the substance, how does the IC50 (read off the curve) [2] read?
The IC50 (read off the curve) was 2 nM.

And the IC50 (read off the curve) [1]?
The IC50 (read off the curve) was 7 nM.

For “IZN17 V570A (from UniProt P04578 565-581) (peptide)”, which IC50 (read off the curve) [2] is on record?
Its IC50 (read off the curve) is 7 nM.

Which results are given for D5 IgG (antibody)?
Kd [3]: 1.5 nM; koff [3]: 0.0012 s⁻¹; kon [3]: 800000 M⁻¹ s⁻¹; Kd [4]: 0.1 nM; koff [4]: 0.00059 s⁻¹; kon [4]: 6.1e+06 M⁻¹ s⁻¹; Kd [5]: 0.3 nM; koff [5]: 0.00089 s⁻¹; kon [5]: 3e+06 M⁻¹ s⁻¹; Kd [6]: 550 nM; koff [6]: 0.003 s⁻¹; kon [6]: 5500 M⁻¹ s⁻¹; Kd [7]: 240 nM; koff [7]: 0.0022 s⁻¹; kon [7]: 9000 M⁻¹ s⁻¹

Which IC50 (read off the curve) [1] does the source give for “IZN17-Q567R (from UniProt P04578 565-581) (peptide)” here?
The IC50 (read off the curve) was 10 nM.

With X5 scFv as the substance, how does the IC50, single cycle infectivity assay against HIV-HXB2 [8] read?
The IC50, single cycle infectivity assay against HIV-HXB2 was 30 nM.
